According to patent US20240141072A1 (published 2024):
Substitutions are numbered along the chain they refer to. Each block holds one binder with its values, some of them ahead of it.

Columns and labels:
[1] = target: T1, human DLL3 on DLL3-expressing tumor cell lines (human, UniProt Q9NYJ7 27-618); assay: cell-based or functional assay
T1 sequence: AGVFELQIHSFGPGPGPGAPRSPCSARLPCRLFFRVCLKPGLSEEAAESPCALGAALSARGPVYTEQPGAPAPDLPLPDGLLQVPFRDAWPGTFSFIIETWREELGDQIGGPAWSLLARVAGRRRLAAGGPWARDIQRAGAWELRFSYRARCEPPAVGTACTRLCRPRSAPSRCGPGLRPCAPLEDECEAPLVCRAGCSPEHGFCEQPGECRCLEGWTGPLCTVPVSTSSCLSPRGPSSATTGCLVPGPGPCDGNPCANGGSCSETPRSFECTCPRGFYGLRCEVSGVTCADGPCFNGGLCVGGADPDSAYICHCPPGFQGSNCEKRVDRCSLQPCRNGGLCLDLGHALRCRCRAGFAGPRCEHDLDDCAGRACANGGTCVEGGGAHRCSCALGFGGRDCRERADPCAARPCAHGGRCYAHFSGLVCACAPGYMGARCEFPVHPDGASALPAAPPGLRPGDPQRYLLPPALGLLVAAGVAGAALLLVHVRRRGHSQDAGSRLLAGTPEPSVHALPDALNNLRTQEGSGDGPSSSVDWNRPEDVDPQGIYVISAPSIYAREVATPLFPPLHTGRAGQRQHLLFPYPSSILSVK

[2] = target: T2, biotinylated human DLL3 protein expressed as a human IgG1 fusion protein (human, UniProt Q9NYJ7 27-492, limits assumed, biotinylated); assay: Octet BLI, single 50 nM
T2 sequence: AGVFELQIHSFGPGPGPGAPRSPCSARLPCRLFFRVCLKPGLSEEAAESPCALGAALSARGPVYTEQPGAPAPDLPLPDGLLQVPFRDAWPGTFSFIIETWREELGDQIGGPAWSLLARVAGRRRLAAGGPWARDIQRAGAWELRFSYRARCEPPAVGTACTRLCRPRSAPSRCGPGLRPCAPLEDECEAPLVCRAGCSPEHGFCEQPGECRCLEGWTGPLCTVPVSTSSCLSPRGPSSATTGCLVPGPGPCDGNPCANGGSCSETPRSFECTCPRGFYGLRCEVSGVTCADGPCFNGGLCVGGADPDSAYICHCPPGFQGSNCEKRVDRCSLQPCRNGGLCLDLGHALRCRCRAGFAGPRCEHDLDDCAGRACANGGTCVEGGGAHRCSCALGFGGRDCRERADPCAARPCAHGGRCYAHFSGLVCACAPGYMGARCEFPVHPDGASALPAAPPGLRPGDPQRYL
Method in brief: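 Affinities reflect binding of the trispecific constructs, supplied as conditioned medium of known protein concentration rather than purified material, to immobilised human DLL3 fusion protein.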

B1: 1C03 anti-DLL3 trispecific protein (other)
chain: EVQLVESGGGLVQPGGSLTLSCVASGSTSSINAMAWYRRAPGKQRELVAGISSDNSKVYADSVKGRFTISRDNAKNSVYLQMNSLRAEDTAVYYCYYFRTVGGSSMRYWGQGTLVTVSS
notes: not shown: linker 1808, anti-albumin sdAb, linker 1808, anti-CD3 fragment, His6 1819
DMS-153 TDCC EC50 [1]: 0.096 nM
Kd [2]: 6.1 nM

B2: 2A04 anti-DLL3 trispecific protein (other)
chain: B1 chain with N55G, A60T, V101T, G102S
notes: as for B1
DMS-153 TDCC EC50 [1]: 0.081 nM
Kd [2]: 5.6 nM

B3: 2E010 anti-DLL3 trispecific protein (other)
chain: B1 chain with N55G, R99H, G102S
notes: as for B1
DMS-153 TDCC EC50 [1]: 0.031 nM
Kd [2]: 4 nM

B4: 2E011 anti-DLL3 trispecific protein (other)
chain: B1 chain with M34I, A35G, N55G, K57S, T100R, G102S
notes: as for B1
DMS-153 TDCC EC50 [1]: 0.19 nM
Kd [2]: 2.4 nM

B5: 2E01 anti-DLL3 trispecific protein (other)
chain: EVQLVESGGGLVQPGGSLTLSCVASGSTSSINAMGWYRRAPFKQGELPAGISPDGTKAYADSAKVRFTISRDNAKNSVYLQMNSLRAEDTAVYYCYYFHTVCGTSMGYWGQGTLVTVSS
notes: as for B1
DMS-153 TDCC EC50 [1]: 0.033 nM
Kd [2]: 4.1 nM

B6: 3D07 anti-DLL3 trispecific protein (other)
chain: EVQLVESGGGLVQPGGSLTLSCAASGSSVRFLSMAWYRQAPGKKRELVAGISADGSTDYIDSVKGRFTISRDNAKNSVYLQMNSLRAEDTAVYYCYAYSWTTRYTYWGQGTLVTVSS
notes: as for B1
DMS-153 TDCC EC50 [1]: 0.061 nM
Kd [2]: 5.9 nM

B7: 3H06 anti-DLL3 trispecific protein (other)
chain: B6 chain with R30S, F31Q, I60F, S99R, Y104G
notes: as for B1
DMS-153 TDCC EC50 [1]: 0.12 nM
Kd [2]: 8 nM

B8: 3H011 anti-DLL3 trispecific protein (other)
chain: B6 chain with R30K, D58V, S99R, T101P
notes: as for B1
DMS-153 TDCC EC50 [1]: 0.12 nM
Kd [2]: 2.7 nM

B9: 4B07 anti-DLL3 trispecific protein (other)
chain: B6 chain with R30G, D58V, S99R
notes: as for B1
DMS-153 TDCC EC50 [1]: 0.067 nM
Kd [2]: 4.3 nM

B10: 4B011 anti-DLL3 trispecific protein (other)
chain: B6 chain with R30T, D58V, S99R, Y104G
notes: as for B1
DMS-153 TDCC EC50 [1]: 0.048 nM
Kd [2]: 3.9 nM

B11: 4C06 anti-DLL3 trispecific protein (other)
chain: B6 chain with G26N, R30S, F31K, D58A, S99R, T101S
notes: as for B1
DMS-153 TDCC EC50 [1]: 0.068 nM
Kd [2]: 6.8 nM

B12: 4E01 anti-DLL3 trispecific protein (other)
chain: B6 chain with R30S, M34V, A53R, S99R, T101R
notes: as for B1
Kd [2]: 11 nM

B13: 4E02 anti-DLL3 trispecific protein (other)
chain: B6 chain with S28Q, R30S, D58V, S99R, T101S
notes: as for B1
DMS-153 TDCC EC50 [1]: 0.041 nM
Kd [2]: 3.8 nM

B14: 4E06 anti-DLL3 trispecific protein (other)
chain: B6 chain with S27T, R30S, D61R, S99R, Y104L
notes: as for B1
Kd [2]: 10 nM

B15: 4E07 anti-DLL3 trispecific protein (other)
chain: B6 chain with S28R, R30S, D58M, S99R, Y104L
notes: as for B1
Kd [2]: 11 nM

B16: 4E08 anti-DLL3 trispecific protein (other)
chain: B6 chain with R30K, A53T, S99K
notes: as for B1
Kd [2]: 7.2 nM

B17: 4E09 anti-DLL3 trispecific protein (other)
chain: B6 chain with R30S, M34S, D58L, S99R, Y104S
notes: as for B1
Kd [2]: 9.1 nM

B18: 4E010 anti-DLL3 trispecific protein (other)
chain: B6 chain with R30K, S99R, T101R
notes: as for B1
Kd [2]: 9 nM

B19: 4E011 anti-DLL3 trispecific protein (other)
chain: B6 chain with R30S, D54T, S99R, T101S
notes: as for B1
Kd [2]: 13 nM

B20: 4F02 anti-DLL3 trispecific protein (other)
chain: B6 chain with S28T, R30S, A53H, S99R
notes: as for B1
Kd [2]: 15 nM

B21: 4F03 anti-DLL3 trispecific protein (other)
chain: B6 chain with R30Q, A53Y, S99R, T101R
notes: as for B1
Kd [2]: 12 nM

B22: 4F04 anti-DLL3 trispecific protein (other)
chain: B6 chain with G26R, R30S, A53T, S99R, T101L
notes: as for B1
Kd [2]: 9.8 nM

B23: 4F08 anti-DLL3 trispecific protein (other)
chain: B6 chain with S28K, R30S, D58A, S99R, T101R
notes: as for B1
Kd [2]: 9 nM

B24: 4F09 anti-DLL3 trispecific protein (other)
chain: B6 chain with S28R, R30S, D61E, S99R
notes: as for B1
Kd [2]: 8.8 nM

The next lines start with the values.

Kd [2]: 5.8 nM
B25: 4F010 anti-DLL3 trispecific protein (other)
chain: B6 chain with R30S, A53I, D61K, S99R, T105R
notes: as for B1

Kd [2]: 8.2 nM
B26: 4F011 anti-DLL3 trispecific protein (other)
chain: B6 chain with S28K, R30S, T57K, S99R
notes: as for B1

Kd [2]: 3.6 nM
B27: 4G01 anti-DLL3 trispecific protein (other)
chain: B6 chain with D58V, S99R, T101P
notes: as for B1

Kd [2]: 15 nM
B28: 4G02 anti-DLL3 trispecific protein (other)
chain: B6 chain with R30K, A53R, S99R, Y104H
notes: as for B1

Kd [2]: 20 nM
B29: 4G03 anti-DLL3 trispecific protein (other)
chain: B6 chain with R30K, D61H, S99R, T102R
notes: as for B1

Kd [2]: 9.7 nM
B30: 4G05 anti-DLL3 trispecific protein (other)
chain: B6 chain with R30S, F31I, D58I, S99R, T101H
notes: as for B1

Kd [2]: 18 nM
B31: 4G07 anti-DLL3 trispecific protein (other)
chain: B6 chain with R30S, M34V, D54N, S99R, T102N
notes: as for B1

Kd [2]: 7.6 nM
B32: 4G08 anti-DLL3 trispecific protein (other)
chain: B6 chain with A53T, S99R, T105R
notes: as for B1

Kd [2]: 8.8 nM
B33: 4G09 anti-DLL3 trispecific protein (other)
chain: B6 chain with S28R, R30S, A53Y, S99R, Y104R
notes: as for B1

Kd [2]: 9.9 nM
B34: 4G010 anti-DLL3 trispecific protein (other)
chain: B6 chain with S27H, R30S, D61A, S99R, T101S
notes: as for B1

Kd [2]: 7.5 nM
B35: 4G011 anti-DLL3 trispecific protein (other)
chain: B6 chain with D61G, S99R, T101S
notes: as for B1

Kd [2]: 21 nM
B36: 4H01 anti-DLL3 trispecific protein (other)
chain: B6 chain with R30S, D54N, I60Y, S99R, T101R
notes: as for B1

Kd [2]: 13 nM
B37: 4H03 anti-DLL3 trispecific protein (other)
chain: B6 chain with S28R, R30S, D58S, S99R
notes: as for B1

DMS-153 TDCC EC50 [1]: 0.051 nM
Kd [2]: 6.1 nM
B38: 4H04 anti-DLL3 trispecific protein (other)
chain: B6 chain with R30K, I51V, S99E
notes: as for B1

Kd [2]: 64 nM
B39: 4H05 anti-DLL3 trispecific protein (other)
chain: B6 chain with R30S, F31R, D54R, S99R, Y104S
notes: as for B1

Kd [2]: 18 nM
B40: 4H06 anti-DLL3 trispecific protein (other)
chain: B6 chain with S27R, R30S, D58I, S99R
notes: as for B1

Kd [2]: 16 nM
B41: 4H07 anti-DLL3 trispecific protein (other)
chain: B6 chain with S27R, R30S, D54N, S99R, T101S
notes: as for B1

Kd [2]: 8.9 nM
B42: 4H08 anti-DLL3 trispecific protein (other)
chain: B6 chain with R30K, I60V, S99R, T101S
notes: as for B1

Kd [2]: 16 nM
B43: 4H09 anti-DLL3 trispecific protein (other)
chain: B6 chain with R30S, F31K, I60R, S99R, T102Y
notes: as for B1
